Key:
[1] = biological target: FimH (Escherichia coli (uropathogenic)) (UniProt P08191); assay: donor strand exchange (DSE) assay, SDS-PAGE of the SDS-stable subunit:subunit product; 20 °C; 500 nM usher complex (acceptor subunit last in FimD:FimC:...) and 5 μM chaperone:subunit complex (donor), one subunit labelled with Alexa 647; quenched with HCl (quench flow for the fast reactions); fitted to Eq. (1) with KinTek Explorer
[2] = biological target: FimG (Escherichia coli (uropathogenic)) (UniProt P08190); assay: as above
[3] = biological target: FimF (Escherichia coli (uropathogenic)) (UniProt P08189); assay: as above
[4] = biological target: FimD:FimC:FimH complex (Escherichia coli (uropathogenic)) (UniProt P30130); assay: AUC; sedimentation velocity of purified FimD:FimC:FimH at the higher concentrations (> 1 μM, up to 4.3 μM); 20 °C, 42,000 rpm, absorbance optics; 50 mM Tris pH 8.0, 150 mM NaCl, 1 mM EDTA, 0.05% DDM; c(s) by SedFit; Kd of usher dimerisation (dimer to monomers) estimated by integrating the monomer and dimer peaks at 4.3 μM
[5] = biological target: the molecule itself; assay: AUC; sedimentation velocity of FimD alone at 5 μM and 2 μM; 20 °C, 42,000 rpm; 50 mM Tris pH 8.0, 150 mM NaCl, 1 mM EDTA, 0.05% DDM; monomer to dimer
[6] = biological target: the molecule itself; assay: donor strand exchange (DSE) assay, SDS-PAGE of the SDS-stable subunit:subunit product; spontaneous (non-usher mediated) formation of FimG polymers from FimC:FimG during the slow reactions
FimF [7] = biological target: T1, FimF (Escherichia coli (uropathogenic), UniProt P08189 21-176); assay: donor strand exchange (DSE) assay, SDS-PAGE of the SDS-stable subunit:subunit product; 20 °C; FimD:FimC:FimH:FimG and FimC:FimF both unlabelled; silver staining and densitometry of the FimH:FimG:FimF product; conditions: both partners purified
T1 construct: also called unlabelled FimF; FimC:FimF (as chaperone complex)
T1 sequence: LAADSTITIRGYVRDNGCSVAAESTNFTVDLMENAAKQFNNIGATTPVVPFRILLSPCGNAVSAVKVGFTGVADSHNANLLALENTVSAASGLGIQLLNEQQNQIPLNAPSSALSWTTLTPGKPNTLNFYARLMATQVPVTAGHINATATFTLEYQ

[8] = biological target: FimF^Q99C[A647] (Escherichia coli (uropathogenic)); assay: donor strand exchange (DSE) assay, SDS-PAGE of the SDS-stable subunit:subunit product; 20 °C; 500 nM usher complex (acceptor subunit last in FimD:FimC:...) and 5 μM chaperone:subunit complex (donor), one subunit labelled with Alexa 647; quenched with HCl (quench flow for the fast reactions); fitted to Eq. (1) with KinTek Explorer
FimF [9] = biological target: T1, FimF; assay: as above; conditions: both partners purified

FimF^Q99C[A647] (natural protein)
kDSE (rate of donor strand exchange, 20 °C) [1]: 0.972 s⁻¹
kDSE (rate of donor strand exchange, 20 °C) [2]: 0.0527 s⁻¹
kDSE (rate of donor strand exchange, 20 °C) [3]: 0.00598 s⁻¹

FimD:FimC:FimH complex (from UniProt P30130;P31697;P08191)
Kd [4]: 20 µM

B1: FimD usher (natural protein)
chain: DLYFNPRFLADDPQAVADLSRFENGQELPPGTYRVDIYLNNGYMATRDVTFNTGDSEQGIVPCLTRAQLASMGLNTASVAGMNLLADDACVPLTTMVQDATAHLDVGQQRLNLTIPQAFMSNRARGYIPPELWDPGINAGLLNYNFSGNSVQNRIGGNSHYAYLNLQSGLNIGAWRLRDNTTWSYNSSDRSSGSKNKWQHINTWLERDIIPLRSRLTLGDGYTQGDIFDGINFRGAQLASDDNMLPDSQRGFAPVIHGIARGTAQVTIKQNGYDIYNSTVPPGPFTINDIYAAGNSGDLQVTIKEADGSTQIFTVPYSSVPLLQREGHTRYSITAGEYRSGNAQQEKTRFFQSTLLHGLPAGWTIYGGTQLADRYRAFNFGIGKNMGALGALSVDMTQANSTLPDDSQHDGQSVRFLYNKSLNESGTNIQLVGYRYSTSGYFNFADTTYSRMNGYNIETQDGVIQVKPKFTDYYNLAYNKRGKLQLTVTQQLGRTSTLYLSGSHQTYWGTSNVDEQFQAGLNTAFEDINWTLSYSLTKNAWQKGRDQMLALNVNIPFSHWLRSDSKSQWRHASASYSMSHDLNGRMTNLAGVYGTLLEDNNLSYSVQTGYAGGGDGNSGSTGYATLNYRGGYGNANIGYSHSDDIKQLYYGVSGGVLAHANGVTLGQPLNDTVVLVKAPGAKDAKVENQTGVRTDWRGYAVLPYATEYRENRVALDTNTLADNVDLDNAVANVVPTRGAIVRAEFKARVGIKLLMTLTHNNKPLPFGAMVTSESSQSSGIVADNGQVYLSGMPLAGKVQVKWGEEENAHCVANYQLPPESQQQLLTQLSAECR
notes: also called apo FimD; the usher; source: in 0.05% DDM
stoichiometry N [5]: 2

B2: FimG (natural protein)
chain: ADVTITVNGKVVAKPCTVSTTNATVDLGDLYSFSLMSAGAASAWHDVALELTNCPVGTSRVTASFSGAADSTGYYKNQGTAQNIQLELQDDSGNTLNTGATKTVQVDDSSQSAHFPLQVRALTVNGGATQGTIQAVISITYTYS
notes: also called unlabelled FimG; FimC:FimG (as chaperone complex)
binding result [6]: binds
binding result (FimF [7]): binds
kDSE (rate of donor strand exchange, 20 °C) [8]: 0.00543 s⁻¹

B3: FimG^S92C[A647] (natural protein)
chain: ADVTITVNGKVVAKPCTVSTTNATVDLGDLYSFSLMSAGAASAWHDVALELTNCPVGTSRVTASFSGAADSTGYYKNQGTAQNIQLELQDDCGNTLNTGATKTVQVDDSSQSAHFPLQVRALTVNGGATQGTIQAVISITYTYS
modifications: fluorescent Alexa 647 label at position 92 (on S92C)
binding result (FimF [9]): binds

— PMC3650583, “Dissection of Pilus Tip Assembly by the FimD Usher Monomer” (Journal of Molecular Biology, 2013)
